In patent US20150344570A1 (published 2015):

T1: FcγRIIa R (human, UniProt P12318 34-217)
T1 construct: extracellular domain; Soluble His-tagged extracellular domain expressed in FreeStyle293 cells; analyte in Biacore; also called FcgRIIa R; FcgRIIaR; not shown: His tag attached to the C terminus
T1 sequence (looked up): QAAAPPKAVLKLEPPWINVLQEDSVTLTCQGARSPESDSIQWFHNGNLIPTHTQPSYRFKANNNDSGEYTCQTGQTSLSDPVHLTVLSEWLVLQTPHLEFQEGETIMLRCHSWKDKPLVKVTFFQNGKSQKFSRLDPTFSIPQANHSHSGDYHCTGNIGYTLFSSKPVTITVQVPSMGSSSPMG

T2: FcγRIIb (human, UniProt P31994 43-217)
T2 construct: extracellular domain; Soluble His-tagged extracellular domain expressed in FreeStyle293 cells; analyte in Biacore; also called FcgRIIb; 2b; not shown: His tag attached to the C terminus
T2 sequence (looked up): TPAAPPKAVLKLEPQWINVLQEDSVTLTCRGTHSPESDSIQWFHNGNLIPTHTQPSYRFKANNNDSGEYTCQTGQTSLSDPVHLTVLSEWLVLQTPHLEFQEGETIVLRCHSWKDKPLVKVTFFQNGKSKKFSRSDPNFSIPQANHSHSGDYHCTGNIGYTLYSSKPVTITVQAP


Legend:
[1] = biological target: T1, FcγRIIa R; test: SPR (Biacore), antibody captured via antigen peptide, FcγR as analyte
[2] = biological target: T2, FcγRIIb; test: as above
[3] = biological target: T1, FcγRIIa R; test: ratio of He/Con_2aR to He/Con_2b (binding to FcγRIIb as reference); SPR

Row | Binder | He/Con_2aR (IIaR binding relative to GpH7-A5/GpH7-B3/GpL16-k0) [1] | He/Con_2b (IIb binding relative to GpH7-A5/GpH7-B3/GpL16-k0) [2] | He_2aR/2b (IIaR/IIb) [3]
1 | GpH7-A5/GpH7-B3 variant S298_15Y/GpL16-k0 (antibody, human IgG1, kappa, Heterodimerized anti-glypican-3 IgG1 antibody; alteration only in the GpH7-B3 H chain; position in EU numbering; also called He Ab) heavy 1: not shown heavy 2: not shown light: DIVMTQSPLSLPVTPGEPASISCQASESLVHSNRNTYLHWYLQKPGQSPQLLIYKVSNRFSGVPDRFSGSGSGTDFTLKISRVEAEDVGVYYCSQNTHVPPTFGQGTKVEIERTVAAPSVFIFPPSDEQLKSGTASVVCLLNNFYPREAKVQWKVDNALQSGNSQESVTEQDSKDSTYSLSSTLTLSKADYEKHKVYACEVTHQGLSSPVTKSFNRGEC | 79.1 % of control (control = 100) | 61.4 % of control (control = 100) | 1.29
2 | GpH7-A5/GpH7-B3 variant P329_18N/GpL16-k0 (antibody, human IgG1, kappa, Heterodimerized anti-glypican-3 IgG1 antibody; alteration only in the GpH7-B3 H chain; position in EU numbering; also called He Ab) heavy 1: not shown heavy 2: not shown light: DIVMTQSPLSLPVTPGEPASISCQASESLVHSNRNTYLHWYLQKPGQSPQLLIYKVSNRFSGVPDRFSGSGSGTDFTLKISRVEAEDVGVYYCSQNTHVPPTFGQGTKVEIERTVAAPSVFIFPPSDEQLKSGTASVVCLLNNFYPREAKVQWKVDNALQSGNSQESVTEQDSKDSTYSLSSTLTLSKADYEKHKVYACEVTHQGLSSPVTKSFNRGEC | 61.2 % of control (control = 100) | 40.4 % of control (control = 100) | 1.51
3 | GpH7-A5/GpH7-B3 variant S298_10E/GpL16-k0 (antibody, human IgG1, kappa, Heterodimerized anti-glypican-3 IgG1 antibody; alteration only in the GpH7-B3 H chain; position in EU numbering; also called He Ab) heavy 1: not shown heavy 2: not shown light: DIVMTQSPLSLPVTPGEPASISCQASESLVHSNRNTYLHWYLQKPGQSPQLLIYKVSNRFSGVPDRFSGSGSGTDFTLKISRVEAEDVGVYYCSQNTHVPPTFGQGTKVEIERTVAAPSVFIFPPSDEQLKSGTASVVCLLNNFYPREAKVQWKVDNALQSGNSQESVTEQDSKDSTYSLSSTLTLSKADYEKHKVYACEVTHQGLSSPVTKSFNRGEC | 65.1 % of control (control = 100) | 47.6 % of control (control = 100) | 1.37
4 | GpH7-A5/GpH7-B3 variant P331_01G/GpL16-k0 (antibody, human IgG1, kappa, Heterodimerized anti-glypican-3 IgG1 antibody; alteration only in the GpH7-B3 H chain; position in EU numbering; also called He Ab) heavy 1: not shown heavy 2: not shown light: DIVMTQSPLSLPVTPGEPASISCQASESLVHSNRNTYLHWYLQKPGQSPQLLIYKVSNRFSGVPDRFSGSGSGTDFTLKISRVEAEDVGVYYCSQNTHVPPTFGQGTKVEIERTVAAPSVFIFPPSDEQLKSGTASVVCLLNNFYPREAKVQWKVDNALQSGNSQESVTEQDSKDSTYSLSSTLTLSKADYEKHKVYACEVTHQGLSSPVTKSFNRGEC | 61 % of control (control = 100) | 45.4 % of control (control = 100) | 1.34
5 | GpH7-A5/GpH7-B3 variant S298_12R/GpL16-k0 (antibody, human IgG1, kappa, Heterodimerized anti-glypican-3 IgG1 antibody; alteration only in the GpH7-B3 H chain; position in EU numbering; also called He Ab) heavy 1: not shown heavy 2: not shown light: DIVMTQSPLSLPVTPGEPASISCQASESLVHSNRNTYLHWYLQKPGQSPQLLIYKVSNRFSGVPDRFSGSGSGTDFTLKISRVEAEDVGVYYCSQNTHVPPTFGQGTKVEIERTVAAPSVFIFPPSDEQLKSGTASVVCLLNNFYPREAKVQWKVDNALQSGNSQESVTEQDSKDSTYSLSSTLTLSKADYEKHKVYACEVTHQGLSSPVTKSFNRGEC | 85.3 % of control (control = 100) | 57.8 % of control (control = 100) | 1.48

Results, then the binder that gave them:

Row | He/Con_2aR (IIaR binding relative to GpH7-A5/GpH7-B3/GpL16-k0) [1] | He/Con_2b (IIb binding relative to GpH7-A5/GpH7-B3/GpL16-k0) [2] | He_2aR/2b (IIaR/IIb) [3] | Binder
6 | 68 % of control (control = 100) | 48.1 % of control (control = 100) | 1.41 | GpH7-A5/GpH7-B3 variant S298_18N/GpL16-k0 (antibody, human IgG1, kappa, Heterodimerized anti-glypican-3 IgG1 antibody; alteration only in the GpH7-B3 H chain; position in EU numbering; also called He Ab) heavy 1: not shown heavy 2: not shown light: DIVMTQSPLSLPVTPGEPASISCQASESLVHSNRNTYLHWYLQKPGQSPQLLIYKVSNRFSGVPDRFSGSGSGTDFTLKISRVEAEDVGVYYCSQNTHVPPTFGQGTKVEIERTVAAPSVFIFPPSDEQLKSGTASVVCLLNNFYPREAKVQWKVDNALQSGNSQESVTEQDSKDSTYSLSSTLTLSKADYEKHKVYACEVTHQGLSSPVTKSFNRGEC
7 | 55.1 % of control (control = 100) | 41.2 % of control (control = 100) | 1.34 | GpH7-A5/GpH7-B3 variant Y300_12R/GpL16-k0 (antibody, human IgG1, kappa, Heterodimerized anti-glypican-3 IgG1 antibody; alteration only in the GpH7-B3 H chain; position in EU numbering; also called He Ab) heavy 1: not shown heavy 2: not shown light: DIVMTQSPLSLPVTPGEPASISCQASESLVHSNRNTYLHWYLQKPGQSPQLLIYKVSNRFSGVPDRFSGSGSGTDFTLKISRVEAEDVGVYYCSQNTHVPPTFGQGTKVEIERTVAAPSVFIFPPSDEQLKSGTASVVCLLNNFYPREAKVQWKVDNALQSGNSQESVTEQDSKDSTYSLSSTLTLSKADYEKHKVYACEVTHQGLSSPVTKSFNRGEC
8 | 88.5 % of control (control = 100) | 63.5 % of control (control = 100) | 1.39 | GpH7-A5/GpH7-B3 variant S298_16H/GpL16-k0 (antibody, human IgG1, kappa, Heterodimerized anti-glypican-3 IgG1 antibody; alteration only in the GpH7-B3 H chain; position in EU numbering; also called He Ab) heavy 1: not shown heavy 2: not shown light: DIVMTQSPLSLPVTPGEPASISCQASESLVHSNRNTYLHWYLQKPGQSPQLLIYKVSNRFSGVPDRFSGSGSGTDFTLKISRVEAEDVGVYYCSQNTHVPPTFGQGTKVEIERTVAAPSVFIFPPSDEQLKSGTASVVCLLNNFYPREAKVQWKVDNALQSGNSQESVTEQDSKDSTYSLSSTLTLSKADYEKHKVYACEVTHQGLSSPVTKSFNRGEC
